Reference: publication PMC8857484

How the values were obtained:
Test in all cases: cross-linking; in vivo cysteine cross-linking with 180 μM aldrithiol-4, 20 min, 37 °C, in SUKO HEK-293T cells expressing single-cysteine STIM1 with or without UNC93B1-FLAG-MYC, treated or not with 0.5 μM thapsigargin for 5 min; non-reducing electrophoresis, blot with anti-STIM1
[1] = target: STIM1-A230C (cysteine-less STIM1 with a single cysteine at residue 230, TM region) (UniProt Q13586)
[2] = target: STIM1-L251C (cysteine-less STIM1 with a single cysteine at residue 251, CC1 domain) (UniProt Q13586)
[3] = target: STIM1-M241C (cysteine-less STIM1 with a single cysteine at residue 241, juxtamembrane region) (UniProt Q13586)

STIM1-A230C (cysteine-less STIM1 with a single cysteine at residue 230, TM region) (from UniProt Q13586 23-685) (natural protein)
stoichiometry N [1]: 2

STIM1-L251C (cysteine-less STIM1 with a single cysteine at residue 251, CC1 domain) (from UniProt Q13586 23-685) (natural protein)
stoichiometry N [2]: 2

STIM1-M241C (cysteine-less STIM1 with a single cysteine at residue 241, juxtamembrane region) (from UniProt Q13586 23-685) (natural protein)
stoichiometry N [3]: 2
